Experiments:
Assay in all cases: cell-based or functional assay
JR-CSF N332A (HIV-1) = JR-CSF N332A (HIV-1) (UniProt P20871)
JR-CSF N392A (HIV-1) = JR-CSF N392A (HIV-1) (UniProt P20871)
92BR020 N386A (HIV-1) = target: 92BR020 N386A (HIV-1)
[1] = target: 92BR020 N136A + N332A (HIV-1)
[2] = target: 92BR020 N301A + N332A (HIV-1)
[3] = target: 92BR020 N156A + N332A (HIV-1)
92BR020 N332A (HIV-1) = target: 92BR020 N332A (HIV-1)
[4] = target: BG505 (T332N) N137A (HIV-1)
92BR020 (HIV-1) = target: 92BR020 (HIV-1)
BG505 (T332N) (HIV-1) = target: BG505 (T332N) (HIV-1)
92BR020 D325A (HIV-1) = target: 92BR020 D325A (HIV-1)
[5] = target: BG505 (T332N) N386A (HIV-1)
JR-CSF R327A (HIV-1) = JR-CSF R327A (HIV-1) (UniProt P20871)
[6] = target: BG505 (T332N) N392A (HIV-1)
JR-CSF D325A (HIV-1) = JR-CSF D325A (HIV-1) (UniProt P20871)
92BR020 I326A (HIV-1) = target: 92BR020 I326A (HIV-1)
JR-CSF G324A (HIV-1) = JR-CSF G324A (HIV-1) (UniProt P20871)
JR-CSF N386A (HIV-1) = JR-CSF N386A (HIV-1) (UniProt P20871)
[7] = target: BG505 (T332N) N295A (HIV-1)
[8] = target: 92BR020 N136A + N156A + N301A (HIV-1)
JR-CSF N339A (HIV-1) = JR-CSF N339A (HIV-1) (UniProt P20871)
92BR020 N136A (HIV-1) = target: 92BR020 N136A (HIV-1)
92BR020 Q328A (HIV-1) = target: 92BR020 Q328A (HIV-1)
JR-CSF I326A (HIV-1) = JR-CSF I326A (HIV-1) (UniProt P20871)
JR-CSF H33OA (HIV-1) = JR-CSF H33OA (HIV-1) (UniProt P20871)
JR-CSF N301A (HIV-1) = JR-CSF N301A (HIV-1) (UniProt P20871)
92BR020 N392A (HIV-1) = target: 92BR020 N392A (HIV-1)
JR-CSF (HIV-1) = JR-CSF (HIV-1) (UniProt P20871)
[9] = target: BG505 (T332N) N156A (HIV-1)
JR-CSF Q328A (HIV-1) = JR-CSF Q328A (HIV-1) (UniProt P20871)
92BR020 N156A (HIV-1) = target: 92BR020 N156A (HIV-1)
92BR020 H33OA (HIV-1) = target: 92BR020 H33OA (HIV-1)
92BR020 N301A (HIV-1) = target: 92BR020 N301A (HIV-1)
92BR020 R327A (HIV-1) = target: 92BR020 R327A (HIV-1)
JR-CSF N295A (HIV-1) = JR-CSF N295A (HIV-1) (UniProt P20871)
JR-CSF N362A (HIV-1) = JR-CSF N362A (HIV-1) (UniProt P20871)
[10] = target: BG505 (T332N) N301A (HIV-1)
[11] = target: 118-virus panel (Env of HIV-1 pseudoviruses)

Molecule: 354BG18 (antibody)
- IC50 in TZM-bl assay (JR-CSF N332A (HIV-1)): > 50 µg/mL
- IC50 in TZM-bl assay (JR-CSF N392A (HIV-1)): 0.002 µg/mL
- IC50 in TZM-bl assay (92BR020 N386A (HIV-1)): 0.003 µg/mL
- IC50 in TZM-bl assay [1]: > 50 µg/mL
- IC50 in TZM-bl assay [2]: > 50 µg/mL
- IC50 in TZM-bl assay [3]: > 50 µg/mL
- IC50 in TZM-bl assay (92BR020 N332A (HIV-1)): > 50 µg/mL

Molecule: control mAb 12A12 (antibody)
- IC50 in TZM-bl assay [4]: 0.027 µg/mL
- IC50 in TZM-bl assay (92BR020 (HIV-1)): 0.05 µg/mL
- IC50 in TZM-bl assay (JR-CSF N332A (HIV-1)): 0.24 µg/mL
- IC50 in TZM-bl assay (JR-CSF N392A (HIV-1)): 0.23 µg/mL
- IC50 in TZM-bl assay (BG505 (T332N) (HIV-1)): 0.03 µg/mL
- IC50 in TZM-bl assay (92BR020 D325A (HIV-1)): 0.05 µg/mL
- IC50 in TZM-bl assay [5]: 0.03 µg/mL
- IC50 in TZM-bl assay (JR-CSF R327A (HIV-1)): 0.131 µg/mL
- IC50 in TZM-bl assay [6]: 0.012 µg/mL
- IC50 in TZM-bl assay (JR-CSF D325A (HIV-1)): 0.203 µg/mL
- IC50 in TZM-bl assay (92BR020 I326A (HIV-1)): 0.011 µg/mL
- IC50 in TZM-bl assay (92BR020 N386A (HIV-1)): 0.055 µg/mL
- IC50 in TZM-bl assay (JR-CSF G324A (HIV-1)): 0.236 µg/mL
- IC50 in TZM-bl assay (JR-CSF N386A (HIV-1)): 0.332 µg/mL
- IC50 in TZM-bl assay [7]: 0.044 µg/mL
- IC50 in TZM-bl assay [8]: 0.013 µg/mL
- IC50 in TZM-bl assay (JR-CSF N339A (HIV-1)): 0.028 µg/mL
- IC50 in TZM-bl assay (92BR020 N136A (HIV-1)): 0.027 µg/mL
- IC50 in TZM-bl assay (92BR020 Q328A (HIV-1)): 0.028 µg/mL
- IC50 in TZM-bl assay [1]: 0.025 µg/mL
- IC50 in TZM-bl assay (JR-CSF I326A (HIV-1)): 0.278 µg/mL
- IC50 in TZM-bl assay (JR-CSF H33OA (HIV-1)): 0.288 µg/mL
- IC50 in TZM-bl assay [2]: 0.007 µg/mL
- IC50 in TZM-bl assay (JR-CSF N301A (HIV-1)): 0.01 µg/mL
- IC50 in TZM-bl assay (92BR020 N392A (HIV-1)): 0.105 µg/mL
- IC50 in TZM-bl assay (JR-CSF (HIV-1)): 0.233 µg/mL
- IC50 in TZM-bl assay [9]: 0.024 µg/mL
- IC50 in TZM-bl assay [3]: 0.023 µg/mL
- IC50 in TZM-bl assay (JR-CSF Q328A (HIV-1)): 0.038 µg/mL
- IC50 in TZM-bl assay (92BR020 N156A (HIV-1)): 0.035 µg/mL
- IC50 in TZM-bl assay (92BR020 H33OA (HIV-1)): 0.073 µg/mL
- IC50 in TZM-bl assay (92BR020 N301A (HIV-1)): 0.011 µg/mL
- IC50 in TZM-bl assay (92BR020 N332A (HIV-1)): 0.039 µg/mL
- IC50 in TZM-bl assay (92BR020 R327A (HIV-1)): 0.022 µg/mL
- IC50 in TZM-bl assay (JR-CSF N295A (HIV-1)): 0.203 µg/mL
- IC50 in TZM-bl assay (JR-CSF N362A (HIV-1)): 0.267 µg/mL
- IC50 in TZM-bl assay [10]: 0.027 µg/mL

B1: BG1 IgG (antibody, V domains shown)
VH: AEQLVESGGGLVPPGRSLRLSCSASGFYFPDYAMAWVRQAPGQGLQWVGFMRGWAYGGSAQFAAFAVGKFAISRDDGRNVVYLDVKNPTFEDTGVYFCAREQRNKDYRYGQEGFGYSYGMDVWGRGTTVVVST
VL: DIHMTQSPVSLSASVGDRVTITCRASHFIANYVNWYQQKPGKAPTLLIFESSTLQRGVPSRFSAYGDGTEFTLSINTLQPEDFASYICQQSHSPPVTFGAGTRVDQK
- geometric mean IC50 in TZM-bl assay [11]: 0.67 µg/mL

Source: patent US11325966
